Measured values from patent US11840557B2, “Wnt7 variants capable of activating g-protein coupled receptor (Gpr)124/Reck/frizzled/lipoprotein receptor-related protein (LRP)-mediated Wnt signaling” (UNIVERSITÉ LIBRE DE BRUXELLES, priority 2018, dated 2023).

Assays:
zebrafish zygote = format: in vivo, Danio rerio; conditions: injection in zygote, 3 dpf larvae
Protocol: The following splice-blocking morpholino (MOs) (GeneTools, Eugene, OR) were injected into embryos at the one-cell stage: wnt7aa ([…], 6 ng) (SEQ ID NO.: 123). Synthetic mRNAs were transcribed from pCS2 plasmids after NotI digestion using the mMessage mMachine SP6 Kit (Ambion, Carlsbad, CA) and injected into one-cell stage zebrafish embryo. For Xenopus laevis microinjection, 15 pg of wnt7a or wnt7a^K190A or wnt7a^1-278 mRNA were injected into one ventral blastomere of the four-cell stage embryo.
zebrafish embryos were imaged with an LSM710 confocal microscope and images were processed in ImageJ. Images of zebrafish development phenotypes were taken on Leica M165 FC. Xenopus larvae were imaged with an Olympus SZX16.

Gpr124/Reck/Fz/LRP = target: T1, Gpr124/Reck/Fz/LRP (UniProt O70421+O95980); assay: STF dual luciferase assay, Gpr124/Reck-dependent signaling in HEK293-STF cells; format: cell-based; conditions: Gpr124, RECK and Fz1 transfection
T1 construct: host or cells: HEK293-STF cells
T1 sequence (O95980 23-942 limits assumed): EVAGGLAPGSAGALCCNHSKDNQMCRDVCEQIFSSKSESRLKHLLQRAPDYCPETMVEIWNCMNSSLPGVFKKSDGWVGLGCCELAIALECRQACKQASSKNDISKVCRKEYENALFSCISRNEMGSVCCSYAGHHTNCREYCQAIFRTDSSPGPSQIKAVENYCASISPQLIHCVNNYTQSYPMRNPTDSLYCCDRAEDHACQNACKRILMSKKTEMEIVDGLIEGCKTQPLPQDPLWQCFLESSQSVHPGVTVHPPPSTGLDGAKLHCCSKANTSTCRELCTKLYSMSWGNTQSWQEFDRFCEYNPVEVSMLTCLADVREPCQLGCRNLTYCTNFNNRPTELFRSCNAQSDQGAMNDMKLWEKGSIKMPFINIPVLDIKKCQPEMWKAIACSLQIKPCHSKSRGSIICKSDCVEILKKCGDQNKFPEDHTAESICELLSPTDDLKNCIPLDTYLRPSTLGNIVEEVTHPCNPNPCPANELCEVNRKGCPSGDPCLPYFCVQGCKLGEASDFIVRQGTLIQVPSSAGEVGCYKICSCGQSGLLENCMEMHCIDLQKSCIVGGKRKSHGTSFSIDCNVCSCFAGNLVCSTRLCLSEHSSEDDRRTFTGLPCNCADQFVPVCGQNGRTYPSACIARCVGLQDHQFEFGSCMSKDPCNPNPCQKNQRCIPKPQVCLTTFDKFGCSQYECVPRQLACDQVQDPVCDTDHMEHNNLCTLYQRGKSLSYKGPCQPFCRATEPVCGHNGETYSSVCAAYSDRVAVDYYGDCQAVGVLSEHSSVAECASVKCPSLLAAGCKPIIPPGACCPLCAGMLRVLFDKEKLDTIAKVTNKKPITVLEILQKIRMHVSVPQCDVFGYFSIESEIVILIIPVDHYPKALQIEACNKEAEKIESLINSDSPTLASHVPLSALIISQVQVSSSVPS
T1 sequence (O70421 69-642): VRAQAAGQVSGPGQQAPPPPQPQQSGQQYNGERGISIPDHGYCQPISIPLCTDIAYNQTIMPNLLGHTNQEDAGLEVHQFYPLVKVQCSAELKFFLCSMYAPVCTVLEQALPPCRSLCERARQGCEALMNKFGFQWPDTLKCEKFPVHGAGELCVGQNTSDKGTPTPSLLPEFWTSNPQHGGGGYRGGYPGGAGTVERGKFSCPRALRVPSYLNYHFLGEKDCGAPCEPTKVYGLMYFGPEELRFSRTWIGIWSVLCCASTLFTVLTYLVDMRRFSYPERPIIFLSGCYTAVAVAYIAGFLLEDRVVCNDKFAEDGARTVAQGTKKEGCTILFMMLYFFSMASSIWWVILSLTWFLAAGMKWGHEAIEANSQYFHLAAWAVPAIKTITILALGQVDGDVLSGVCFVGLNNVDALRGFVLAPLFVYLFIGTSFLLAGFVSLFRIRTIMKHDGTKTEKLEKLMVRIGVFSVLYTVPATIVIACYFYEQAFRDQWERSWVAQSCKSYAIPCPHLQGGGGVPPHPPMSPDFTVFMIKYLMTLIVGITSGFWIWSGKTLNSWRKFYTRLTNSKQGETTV
T1 sequence (Q96PE1 34-1338 partner): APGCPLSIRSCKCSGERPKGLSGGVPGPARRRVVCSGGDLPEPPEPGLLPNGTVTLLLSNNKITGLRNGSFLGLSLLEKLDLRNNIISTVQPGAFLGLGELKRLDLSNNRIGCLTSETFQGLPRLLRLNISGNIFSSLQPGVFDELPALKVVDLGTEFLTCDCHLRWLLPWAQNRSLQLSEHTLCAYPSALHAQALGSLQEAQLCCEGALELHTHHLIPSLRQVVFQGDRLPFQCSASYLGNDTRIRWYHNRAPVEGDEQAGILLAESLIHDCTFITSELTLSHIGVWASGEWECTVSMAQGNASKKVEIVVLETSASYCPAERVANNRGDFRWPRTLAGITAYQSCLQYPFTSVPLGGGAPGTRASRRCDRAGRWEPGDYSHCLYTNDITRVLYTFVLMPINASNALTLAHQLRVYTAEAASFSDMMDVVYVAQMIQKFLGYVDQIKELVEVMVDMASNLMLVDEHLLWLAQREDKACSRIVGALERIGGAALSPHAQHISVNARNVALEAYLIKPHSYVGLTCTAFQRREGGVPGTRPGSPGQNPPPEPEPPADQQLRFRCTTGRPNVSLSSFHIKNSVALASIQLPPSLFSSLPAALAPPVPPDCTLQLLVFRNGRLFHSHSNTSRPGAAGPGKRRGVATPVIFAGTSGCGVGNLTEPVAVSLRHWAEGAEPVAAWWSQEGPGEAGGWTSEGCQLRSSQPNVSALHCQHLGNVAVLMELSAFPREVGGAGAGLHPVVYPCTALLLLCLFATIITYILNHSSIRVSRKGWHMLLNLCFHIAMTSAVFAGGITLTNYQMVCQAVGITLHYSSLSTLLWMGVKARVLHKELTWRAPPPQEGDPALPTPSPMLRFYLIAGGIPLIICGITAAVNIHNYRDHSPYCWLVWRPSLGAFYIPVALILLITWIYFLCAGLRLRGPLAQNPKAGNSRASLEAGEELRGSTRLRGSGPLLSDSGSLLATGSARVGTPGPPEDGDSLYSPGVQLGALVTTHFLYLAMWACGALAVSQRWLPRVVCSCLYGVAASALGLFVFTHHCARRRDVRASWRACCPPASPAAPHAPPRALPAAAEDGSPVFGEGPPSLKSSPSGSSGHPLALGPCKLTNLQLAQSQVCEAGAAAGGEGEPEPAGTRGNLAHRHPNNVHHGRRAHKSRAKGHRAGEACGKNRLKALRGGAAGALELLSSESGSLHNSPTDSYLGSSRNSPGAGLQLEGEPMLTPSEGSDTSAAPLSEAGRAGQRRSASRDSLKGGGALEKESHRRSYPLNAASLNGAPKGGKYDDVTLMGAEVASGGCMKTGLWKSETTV
T1 sequence (O75581 20-1613 partner): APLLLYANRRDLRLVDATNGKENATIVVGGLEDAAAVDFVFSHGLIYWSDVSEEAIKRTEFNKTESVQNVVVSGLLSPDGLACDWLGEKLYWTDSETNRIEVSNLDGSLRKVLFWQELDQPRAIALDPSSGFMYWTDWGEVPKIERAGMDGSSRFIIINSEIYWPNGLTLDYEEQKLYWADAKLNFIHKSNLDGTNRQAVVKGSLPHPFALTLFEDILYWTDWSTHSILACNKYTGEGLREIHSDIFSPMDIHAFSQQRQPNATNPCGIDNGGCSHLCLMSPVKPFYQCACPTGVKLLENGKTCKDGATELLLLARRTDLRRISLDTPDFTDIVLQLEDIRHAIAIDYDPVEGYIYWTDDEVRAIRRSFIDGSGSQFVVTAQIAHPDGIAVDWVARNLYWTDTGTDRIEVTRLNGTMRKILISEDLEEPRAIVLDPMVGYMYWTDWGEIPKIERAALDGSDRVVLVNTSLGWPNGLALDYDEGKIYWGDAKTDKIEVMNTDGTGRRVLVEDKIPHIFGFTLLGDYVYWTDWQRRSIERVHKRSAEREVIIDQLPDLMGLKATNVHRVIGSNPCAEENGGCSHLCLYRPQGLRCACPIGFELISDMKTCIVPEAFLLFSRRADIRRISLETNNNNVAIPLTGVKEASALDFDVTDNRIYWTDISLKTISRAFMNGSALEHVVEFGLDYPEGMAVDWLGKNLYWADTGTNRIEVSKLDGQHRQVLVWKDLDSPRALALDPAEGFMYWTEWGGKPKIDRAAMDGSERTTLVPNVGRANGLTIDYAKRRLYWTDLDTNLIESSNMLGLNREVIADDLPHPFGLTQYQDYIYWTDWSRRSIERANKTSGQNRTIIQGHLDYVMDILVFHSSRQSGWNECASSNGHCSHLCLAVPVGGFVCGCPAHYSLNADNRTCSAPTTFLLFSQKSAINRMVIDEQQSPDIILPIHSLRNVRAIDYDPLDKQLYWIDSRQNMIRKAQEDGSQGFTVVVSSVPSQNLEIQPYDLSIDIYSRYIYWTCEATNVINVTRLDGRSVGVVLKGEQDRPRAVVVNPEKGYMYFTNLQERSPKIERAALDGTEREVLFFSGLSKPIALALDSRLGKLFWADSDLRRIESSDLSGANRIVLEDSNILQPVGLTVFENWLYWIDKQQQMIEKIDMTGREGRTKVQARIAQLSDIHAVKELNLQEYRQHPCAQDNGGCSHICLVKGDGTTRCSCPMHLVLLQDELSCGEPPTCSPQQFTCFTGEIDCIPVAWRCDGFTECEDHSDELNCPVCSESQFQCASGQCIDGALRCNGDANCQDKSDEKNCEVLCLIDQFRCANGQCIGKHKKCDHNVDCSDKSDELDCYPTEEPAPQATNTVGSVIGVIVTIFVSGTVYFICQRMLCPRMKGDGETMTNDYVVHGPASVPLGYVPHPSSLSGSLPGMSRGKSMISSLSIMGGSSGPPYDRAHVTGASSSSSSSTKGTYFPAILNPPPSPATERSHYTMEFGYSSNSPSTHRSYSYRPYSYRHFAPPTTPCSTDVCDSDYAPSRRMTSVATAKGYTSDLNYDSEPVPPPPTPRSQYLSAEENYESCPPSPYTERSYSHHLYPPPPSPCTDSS
Protocol: Cells were plated into 96-well plates and transfected after 24 h in triplicate with Lipofectamine 2000 (Life Technologies, Carlsbad, Calif.). The amount of plasmid DNA transfected per well was optimized for each expression vector: Renilla luciferase (0.5 ng) (was kindly provided by Jeremy Nathans (John Hopkins)), Wnt ligands (20 ng), Fz receptors (5 ng), Lrp (2.5 ng), Gpr124 (10 ng), Reck (5 ng) and Dkk-1 (10 ng) unless otherwise indicated. The total amount of DNA was adjusted to 100 ng per well with the empty pCS2 vector. Dual luciferase assays were performed using the STF cell line or by co-transfecting 20 ng of M50 Super 8× TOPFlash plasmid (Addgene plasmid #12456). Cells were harvested in passive lysis buffer (E1960, Promega, Wis.) and the activities of the Firefly and Renilla luciferases were measured sequentially using the Dual-Luciferase Reporter Assay system (E1960, Promega, Madison, Wis.) 48 h post-transfection. […] Luciferase activity was measured 24 h after co-culture.
Cells were plated into 96-well plates and transfected after 24 h in triplicate with Lipofectamine 2000 (Invitrogen, Carlsbad, Calif.). […] Cells were harvested in passive lysis buffer (E1960, Promega, Wisconsin) and the activities of the Firefly and Renilla luciferases were measured sequentially using the Dual-Luciferase Reporter Assay system (E1960, Promega, Madison, Wis.) 48 h post-transfection.

[1] = test system: Wnt7aa^−/− mutant zebrafish; assay: Transgenic endothelial expression (kdrl promoter) in Wnt7aa−/− zebrafish: hindbrain CtAs and GLUT1 staining; format: in vivo, Danio rerio; conditions: 60 hpf embryos
From the text: (A) Dorsal views of the cerebral vasculatures of 60 hpf WT or Wnt7aa^−/− Tg(kdrl:EGFP) embryos. In Wnt7a^−/− mutants, the intracerebral CtAs are lacking. Wnt7, Wnt7a^K190A or Wnt7a^1-278 were transiently expressed in the endothelium of Wnt7aa^−/− embryos under the control of an endothelial-specific kdrl (Vascular endothelial growth factor receptor kdr-like) promoter. The Wnt7 ligands were expressed as a biscistronic construct with BFP (Blue Fluorescent Protein) used as transgenesis marker. In contrast to uninjected embryos, Wnt7, Wnt7a^K190A or Wnt7a^1-278 restore hindbrain CtAs formation in Wnt7aa^−/− mutants as quantified in (B). (C) Anti-GLUT1 staining of the CtAs after transgenic expression of Wnt7, Wnt7a^K190A and Wnt7a^1-278 in 60 hpf Wnt7aa^−/− embryos. Transgenic expression was achieved as in (A).
Mouse Wnt7, Wnt7a^K190A and Wnt7a^1-278 were transiently expressed in the endothelium of Wnt7aa^−/− embryos under the control of an endothelial-specific kdrl (Vascular endothelial growth factor receptor kdr-like) promoter. The Wnt7 ligands were expressed as a biscistronic construct with BFP (Blue Fluorescent Protein) as transgenesis marker.

B1: Wnt7a^1-278: the N-terminal domain of Wnt7a, single domain truncated variant (protein)
chain: LGASIICNKIPGLAPRQRAICQSRPDAIIVIGEGSQMGLDECQFQFRNGRWNCSALGERTVFGKELKVGSREAAFTYAIIAAGVAHAITAACTQGNLSDCGCDKEKQGQYHRDEGWKWGGCSADIRYGIGFAKVFVDAREIKQNARTLMNLHNNEAGRKILEENMKLECKCHGVSGSCTTKTCWTTLPQFRELGYVLKDKYNEAVHVEPVRASRNKRPTFLKIKKPLSYRKPMDTDLVYIEKSPNYC
modifications: left off: small tags and cut ends
notes: the N-terminal domain of Wnt7a, single domain truncated variant
- mRNA dose well tolerated without posteriorizing or gross anatomical alterations (zebrafish zygote): up to 1 ng
- signaling capacity via Gpr124/Reck/Fz1 (Gpr124/Reck/Fz/LRP): ~40%
- blood-brain barrier (GLUT1 expression) ([1]; anti-GLUT1 staining of CtAs): restored blood-brain barrier
- brain angiogenesis / hindbrain CtAs formation ([1]; transient endothelial expression): triggered GPR124/RECK-dependent brain angiogenesis
